{"source": "the DeepSol protein solubility set"}
{"assay": "soluble on expression in E. coli; label from the status in PepcDB or PDB records"}
{"sequence": "MGHHHHHHSHPKQEKLLSLAGDSLFWSEADVVQATDDFNQNRKISQGTFADVYRGHRHGKPFVFKKLRETACSSPGSIERFFQAELQICLRCCHPNVLPVLGFCAARQFHSFIYPYMANGSLQDRLQGQGGSDPLPWPQRVSICSGLLCAVEYLHGLEIIHSNVKSSNVLLDQNLTPKLAHPMAHLCPVNKRSKYTMMKTHLLRTSAAYLPEDFIRVGQLTKRVDIFSCGIVLAEVLTGIPAMDNNRSPVYLKDLLLSDIPSSTASLCSRKTGVENVMAKEICQKYLEKGAGRLPEDCAEALATAACLCLRRRNTSLQEVCGSVAAVEERLRGRETLL", "soluble on expression in E. coli": "not soluble"}
{"sequence": "MFNGEKVTLLEMLDAREQRAATQKELLETAPEASLLSATMNIPGEVKNSPTLTAVFLEVIDEVEQQLLDQVPIVNFYRNEKTGPEYYLAVSLAPQELKQRMVKIEETHPYGRLVDLDVLWGNEELKSLHRGDLGLPPRRCFICQEVAKVCGRNRRHSLEAMQEKITEIILTRKEQPSE", "soluble on expression in E. coli": "not soluble"}
{"sequence": "MAAIDAALKAGEKILSIYEDPKSDFEIERKADNSPLTIADRKAHEAIVAILNETPFPVLSEEGKHMDYAVRRGWDTLWIVDPLDGTKEFIKRNGEFTVNIALVQNAVPVMGVIYVPVKKELYFAVEGTGAYKCSGIVGLEDEGVTLQQMIEKSERMPLADARDHFIAVASRSHLTPETETYIADLKKKHGNVELISSGSSIKICLVAEGKADVYPRFAPTMEWDTAAGHAIARAAGMEVYQAGKEEPLRYNKEDLLNPWFIVEAKRER", "soluble on expression in E. coli": "soluble"}
{"sequence": "MGSDKIHHHHHHMKIGIVISGGDVSGMNNFIFQIARQANADITLFNGGIPGLLEKSHQDMAWRDLVDYSITAVPIITSGRTSRKLQRSEYESIAKKLKSLRIDVLIMAGGDGSLQFLNTLSEFEINCFGVGMTIDNDVYGSDYTIGFSTACEQIIKEVSRLRNTGRALPGRVFMVEILGGYCGELTLQSAIKCNADIALIPEAQMPLAVLAERITRKLSAQNSVVILCSEGYTKEYSPGFQGAIDTMIKQLEPQIGVRIRKTIVGYGLRSGDPTCEEIYQGTIMASEVVRCIQSGMKNKAIIINSSNKPIPIDLVSMKKRLVDTEGHHYKLAKQLNII", "soluble on expression in E. coli": "not soluble"}
{"sequence": "MSLAKHIVELTDALSNKIAAGEVVERPASVVKELVENAIDAGSTVIDILVEEAGLNKITIIDNGSGIEEEDVATAFLRHATSKIKNEADLFRVHTLGFRGEALPSIASVSHLEMETSTGEAKGTTISLEGGKIIEQKSGHARKGTQIEVSQLFFNTPARLKYLKSLPTELGNITDILNRLALAHPDISFRFSHNGKPLLQTNGNGELRQVIAAIYGVSIAKKSVPVKAESLDFKISGYAVLPEVNRSNRNYISTIINGRFIKNFALVKAIQEGYHTLLPIGRFPIIVLQIEMDPIIVDVNVHPAKLEVRLSKEKELGQLISQMIKETFHKLQLIPDGEISKEGHHHHHH", "soluble on expression in E. coli": "soluble"}
{"sequence": "MSLVLSAGRLNKNSLGIAVLLCTGLLLAGCSSNSGSGTYSGSVYTVKRGDTLYRISRATGTSVKELARLNGISPPYTIEVGQRIKVRGSAKSSTSTRKTSNKTATKTAAVRPSSSVPKSSWPPVGQRCWVWPANGKVILPYSTAEGGNKGIDIAGARGTPVYAAGAGKVVYVGNQLRGYGNLIMIKHNEDYITAYAHNDTMLVNNGQSVKAGQKIATMGSTDAASVRLHFQIRYRATAIDPLRYLPPQGSKPKCEGHHHHHH", "soluble on expression in E. coli": "not soluble"}
{"sequence": "MGHHHHHHSHMGITTNLISEVSKFYYALKYHAKFMSLGELGCYASHYSLWEKCIELNEAICILEDDITLKEDFKEGLDFLEKHIQELGYIRLMHLLYDASVKSEPLSHKNHEIQERVGIIKAYSEGVGTQGYVITPKIAKVFLKCSRKWVVPVDTIMDATFIHGVKNLVLQPFVIADDEQISTIARKEEPYSPKIALMRELHFKYLKYWQFV", "soluble on expression in E. coli": "not soluble"}
{"sequence": "MATKKDVHDLFLNHVNSNAVKTRKMMGEYIIYYDSVVIGGLYDNRLLVKATKSVRHQLQDNTLVSPYPGAKEMILIPDITEAINLTNLFELIKNDLKN", "soluble on expression in E. coli": "not soluble"}
{"sequence": "MLIDKTIILSVAFFTSSVFGQTSDKDFLKKPHVLPSAEAAYHAVYHELDSVKSGNRDEKVFGQLYVALIEDQFTFGGDLSTWPDSAFQKGDRGCKPFMAANLHNLCNNEYFLVHQDMIKLVKTVFERKNQADPSFDTICLANNGFVVSDDPENHLVYRYKHRIPMTYKATSNDQKCFGTYDTRTDTFTCMRYDASTKKMSPFELQNFLWKENTGTFHLGNGNAEVFCKKPFYTNK", "soluble on expression in E. coli": "not soluble"}
{"sequence": "GPGSMYFTSAKDVVRLCGGGLAPEVTFAIDDYPATDSIGYNSSAVAGGGGTNVDGASMSNVTTAIQRSLRRASRTAGQPTLRPTRTEQVCGPAVLGAGEALGLAPFKYVCYTVSTTSVVAPASGSASAASKGAKGDGGATYVEFVDAFRIRTSDVHAAVIDIAAQQRAERLQHSPNLYVPWCAAAPGEVVPRGAARTVADFIVAARHRTLYSDYAATELLVRQSWLLQDAAAHTIRALMPHMVPRTYMPGEVMACPHTPGSLRQLCFLRRGRLNVFVVPKSGITPVLLMKGESPDVLVTSRFSRDGCGCWCLRETPTAQPAEVVESGASFGELSVLFHEPRHCILRADTVCDVWCLPRQNFAALMQRDAALRDGLLRKAAVLRVEWMGEQRFTRALAQQLRAGSELLKPLPDIAIRLIQERLEPVIYTPGSLVASTSTRCTEMTFIMRGTVSTIWKVLLHTAQGTCWARDA", "soluble on expression in E. coli": "not soluble"}
{"sequence": "MIGFLSDRQGFEKQYHDIDLSSFGIREGISEIIASTGFEHPNAAPIGIVMKGERPFVRLFKGSHTWENVLKEKCLASNVVYDPILFVRSTFSDLVPSEFEYVDAGEFKFPVLKEAIAWVVFECINLRNTDQSLVADLVPLNAGFNERNIKELPVPNRGFNAVLEATVHATRYQLTGEEKYLELIRHYESLASKCGGDAEKKAMKLIYEALGLLEHHHHHH", "soluble on expression in E. coli": "not soluble"}
{"sequence": "MAKVVIPNGAEGEEAVYREQVIREYSGNPFIEALPPIYAPEEVVEKLAVYPPYSEEERNLDAHYRIHLTQKLFHCFQPLPQHLDLESRISRVIRQGYLPRNPVSKEYVISLKDGYRAVQNCDINANQQFRSTACGFTIIGVSGMGKSVSINRVLSMYPQVIVHSRYKGQGFSFYQLVWLKLDTPFDGSVKGLCIDFFNKVDQLMGTDFYKKVANSRKSVDYMLTLMCQVVRNTGLGLLIIDEVQHLCGARGLGDERMLNFFVTLVNTAGVPIILIATPKAMSILQSEFRQARRGSGQGDMVWERLQYDENFEILLDSLWQYQWTRKESILTKSMRELLYEESQGIIDIICKIIVMAQTIAISTGKEQVDEKLIQQVAREHLQLVRPMILALKSGNIREIAKYSDICTAEIDYGKLVNQEKLPVEMRMRIRAIKEQKEKREKENKTSKMEQALYKLAELGIDVAKARKAVEAVFEAEGHNIDEGQLVIKAIQVLSGNTTEKKSKKVKTTPKSENDLRYIVEEGRNQGKSAYDALKDKGYIKGEKNDTLFKAV", "soluble on expression in E. coli": "not soluble"}
{"sequence": "MVKCLSAHNKAPHVSVITPSYNSRRFIGETILSVQNQSYENWEMIIVDDCSTDQSAAKIKEIIEGDSRIRLLSLKENVGAAKARNLAIREARGRYIAFLDSDDIWLPHKLKTQLLFMEEMNIAFSYASYSLIDENGNELNREVSVPKSVDYHYLVGNTIIGCLTVMIDREKIPYVEMPSVQPEDTALWLNLLHEGHEAKGIQQVLAKYRIVANSVSSNKVRAAFRYWKLLRDQKSLNAVQSFYYFSKYAYHAYKKNKINVVGKTQLLEHHHHHH", "soluble on expression in E. coli": "not soluble"}
{"sequence": "MASPVIYQAEDAIIYNAILETVNAGYTGSCYVNYHNEVGGYIEWNVNAPSSGSYALIFRYANGTTANRPMRITVNGNIVKPSMDFVSTGAWTTWNEAGIVANLNQGNNVIRATAIASDGGPNVDYLKVFSANAFQPVSLEHHHHHH", "soluble on expression in E. coli": "soluble"}
{"sequence": "MGSDKIHHHHHHMDKLLYIAMSGAKQNMQALSINANNLANAKTTGFKADLAQARSMQAFGEGLPSRVFSMTERASQNFDSGSILHTGRSLDMAIEGEGFFAVQAEDGQEAYTRGGHFRLTETGALETNDGELVIGENGPITLPLPINNIQISRDGTIMVQPAGAPSSVQEEVGRIKLVNPDTRLVDKGNDGLFRAKNGGQLIADVNVNVLGGALESSNVNPINEMTDMIALQRQFEMQLKMMKTAEEIDSSASSLLRAF", "soluble on expression in E. coli": "not soluble"}
{"sequence": "MGSDKIHHHHHHMKKAMVIINPTSGGEKALDYKEKLENKAKEYFEYVETKITEKALDATHFAEEASREQYDAVVVFGGDGTVNEVISGIDERDYIPKLGIIPGGTGNLITKLLEINQDIDGAIDELDFDLTNKIDIGKANDNYFGYIFSIGSLPEAIHNVEIEDKTKFGILTYAVNTMKSVMTDQVFNIKVETENGNYVGEASHVLVLLTNYFADKKIFEENKDGYANILILKDASIFSKLSVIPDLLKGDVVANDNIEYIKARNIKISSDSELESDVDGDKSDNLPVEIKVLAQRVEVFSKPKED", "soluble on expression in E. coli": "not soluble"}
{"sequence": "MGSDKIHHHHHHMDKILNLDSVDLYNKLYGLETLNPLVSVIDLNKATSSVDLIRFNYGIYALYLKLEKACDIKYGRQTYDYQEGTIVCFAPGQTAETNPTTDKVQVNAHGILFHPDLLRGTSLGKNIKKYTFFSYEVNEALHLSEEERSIVMDCLKIIRMELEHGVDKHSKTLLVNHIELLLNYCMRFYERQFITRGKTNRDVLTRFENLLDEYFESTLAEQDGLPTVKYFADKLCLSSNYFGDMFKKETGKSPQEYIQEKVIELAKERISGTADTVSQIAYSLGFQYPQHSCRLFKKRVGYTPSEYRAQIGLSTNL", "soluble on expression in E. coli": "not soluble"}
{"sequence": "MLTCTVDTQFGRLTLREEAGALVSVSWGSAAREDASELLQRASLQVSEYDQGARQQFDLPVRIRGSAFQRAVCDAICAIPFGDTCTYGDIARALGVPAQAVGQACGANPIPIIIPCHRVMGAKGLTGFSGVGGVETKVALLRHEGAAGLLILEHHHHHH", "soluble on expression in E. coli": "not soluble"}
{"sequence": "MYDTIVIGAGQAGISIGYYLKQSDQKFIILDKSHEVGESWKDRYDSLVLFTSRMYSSLPGMHLEGEKHGFPSKNEIVAYLKKYVKKFEIPIQLRTEVISVLKIKNYFLIKTNREEYQTKNLVIATGPFHTPNIPSISKDLSDNINQLHSSQYKNSKQLAYGNVLVVGGGNSGAQIAVELSKERVTYLACSNKLVYFPLMIGKRSIFWWFDKLGVLHASHTSIVGKFIQKKGDPVFGHELKHAIKQKEIILKKRVIAAKQNEIIFKDSSTLEVNNIIWATGFRNPLCWINIKGVLDQEGRIIHHRGVSPVEGLYFIGLPWQHKRGSALLQGVGNDAEYIVKQMNGELEHHHHHH", "soluble on expression in E. coli": "soluble"}
{"sequence": "MAHHHHHHMHFSLQKKNICTNSTKCVNVHPYLFPPLGMVPKRVRYDVHRGGEQHTDITNLLHTFKRFKMVKTSSYRRKSRSSPNGQGQKAKIGIKRLSAEYVKTGQLLVKQRKIIAFNLERKTRRRNFKYYPGEHVKVTKNTSLVALTNGRVKYTFHTTQNVLIVNVLPEEIDELREEDLYRYRTEHVRSLEENRSLVYLRMKHVVSFPPSKETQFRKPPLRPQFLARYDIEDNPTLREVPVLYHKPK", "soluble on expression in E. coli": "not soluble"}
{"sequence": "MKRLEVSNQAKLPTQFGEFYIQCFREKGSNGSKDHLVVFTPNFSQNPLVRLHSECLTGDALGSQKCDCGGALQMALERISKEGGLVIYLRQEGRGIGLFNKVNAYALQDKGYDTIQANEMIGFKDDERDYSVAGEILEYYRIKKMRLLTNNPKKIAALEKYAEVTRESLIVCANEHNQGYLEVKKLKMGHLLLEHHHHHH", "soluble on expression in E. coli": "soluble"}
{"sequence": "MGSDKIHHHHHHMNLLTDIFCQKPKRETAMTTETHYDTQAANSCYYQVQGSEVEIFNFAKTHDLPVLIKGPTGCGKTRFVEFMAESLGRELVTVSCHDDLTAADLLGRHLVSSEGTFWQDGPLTRAVRHGGICYLDEIIEARKDTTVVLHSLSDHRRELHLERTGEVIKAHKDFMLVVSYNPGYQNMMKGLKPSTRQRFVAMSFDYPSPEQEAEILVHEAGITTELAHTLVKLGADIRRLSDIDLKAAVSTRLLIYAAKMMSSGCHAQMACLHCIIEPLTDEKQTIEALTQLVNAHF", "soluble on expression in E. coli": "not soluble"}
